Experimental data from publication PMC9712689 (Communications Biology, 2022).

Tests used:
Settings in all cases: both partners purified
PBP4 [1] = molecular target: T1, PBP4 (P. aeruginosa PAO1, UniProt Q9HZG1 1-476); test: MST
T1 sequence (looked up): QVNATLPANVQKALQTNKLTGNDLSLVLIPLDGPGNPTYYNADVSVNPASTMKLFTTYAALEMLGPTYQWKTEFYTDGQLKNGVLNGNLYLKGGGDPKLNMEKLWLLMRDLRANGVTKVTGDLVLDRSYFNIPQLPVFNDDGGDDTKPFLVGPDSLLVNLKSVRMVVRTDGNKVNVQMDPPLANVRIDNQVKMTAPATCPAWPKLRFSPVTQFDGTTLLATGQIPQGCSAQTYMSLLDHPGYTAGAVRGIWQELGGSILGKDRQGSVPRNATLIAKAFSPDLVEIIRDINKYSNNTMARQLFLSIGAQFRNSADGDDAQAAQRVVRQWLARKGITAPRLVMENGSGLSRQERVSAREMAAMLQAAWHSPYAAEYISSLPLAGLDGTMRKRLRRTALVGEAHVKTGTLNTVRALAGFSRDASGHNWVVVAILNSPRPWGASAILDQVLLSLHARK

MltD [2] = molecular target: T2, MltD (P. aeruginosa PAO1, UniProt Q9I2T2 1-534); test: MST
T2 sequence (looked up): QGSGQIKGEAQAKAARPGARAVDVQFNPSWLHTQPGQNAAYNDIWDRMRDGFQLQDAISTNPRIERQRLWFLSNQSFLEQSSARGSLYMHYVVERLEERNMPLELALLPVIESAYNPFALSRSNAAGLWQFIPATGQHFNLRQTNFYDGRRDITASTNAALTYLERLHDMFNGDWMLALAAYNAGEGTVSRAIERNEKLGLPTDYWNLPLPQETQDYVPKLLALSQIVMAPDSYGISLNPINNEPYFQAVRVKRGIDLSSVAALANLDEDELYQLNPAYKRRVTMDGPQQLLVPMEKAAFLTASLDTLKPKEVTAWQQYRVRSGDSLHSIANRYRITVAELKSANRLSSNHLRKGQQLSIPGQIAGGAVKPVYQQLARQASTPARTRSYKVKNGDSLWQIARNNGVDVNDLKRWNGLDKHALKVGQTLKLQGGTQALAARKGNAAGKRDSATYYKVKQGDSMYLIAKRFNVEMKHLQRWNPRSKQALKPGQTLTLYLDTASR

MltF2 [3] = molecular target: T3, MltF2 (P. aeruginosa PAO1, UniProt Q9HZY1 1-476); test: MST
T3 sequence (looked up): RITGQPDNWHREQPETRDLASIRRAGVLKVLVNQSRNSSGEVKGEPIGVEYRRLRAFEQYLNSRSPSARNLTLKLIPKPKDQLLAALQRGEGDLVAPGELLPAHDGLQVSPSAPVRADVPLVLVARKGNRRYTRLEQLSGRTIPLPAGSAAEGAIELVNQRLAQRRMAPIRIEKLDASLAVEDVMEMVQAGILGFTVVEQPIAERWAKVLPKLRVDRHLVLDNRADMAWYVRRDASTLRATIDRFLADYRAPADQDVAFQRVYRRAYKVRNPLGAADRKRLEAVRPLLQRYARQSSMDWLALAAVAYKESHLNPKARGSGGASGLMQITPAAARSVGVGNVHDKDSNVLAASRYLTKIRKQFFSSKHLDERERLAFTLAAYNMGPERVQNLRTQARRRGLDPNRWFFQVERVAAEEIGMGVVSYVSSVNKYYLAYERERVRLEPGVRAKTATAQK

MltF [4] = molecular target: T4, MltF (P. aeruginosa PAO1, UniProt Q9HXN1 33-490); test: MST
T4 sequence (Q9HXN1 33-490): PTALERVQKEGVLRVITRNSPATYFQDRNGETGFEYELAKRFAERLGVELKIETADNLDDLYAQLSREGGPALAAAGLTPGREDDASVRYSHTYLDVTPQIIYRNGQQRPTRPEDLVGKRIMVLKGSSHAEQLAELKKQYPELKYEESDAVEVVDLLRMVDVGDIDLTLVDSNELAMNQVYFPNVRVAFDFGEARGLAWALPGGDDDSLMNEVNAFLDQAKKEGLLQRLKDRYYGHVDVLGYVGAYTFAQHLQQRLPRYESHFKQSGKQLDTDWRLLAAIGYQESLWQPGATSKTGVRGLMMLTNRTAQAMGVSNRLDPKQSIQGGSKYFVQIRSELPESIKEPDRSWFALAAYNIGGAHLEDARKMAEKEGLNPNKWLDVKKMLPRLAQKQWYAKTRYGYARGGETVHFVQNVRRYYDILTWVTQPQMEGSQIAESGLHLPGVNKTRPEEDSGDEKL

MltB [5] = molecular target: T5, MltB (P. aeruginosa PAO1, UniProt Q9HVX3 1-367); test: MST
T5 sequence (looked up): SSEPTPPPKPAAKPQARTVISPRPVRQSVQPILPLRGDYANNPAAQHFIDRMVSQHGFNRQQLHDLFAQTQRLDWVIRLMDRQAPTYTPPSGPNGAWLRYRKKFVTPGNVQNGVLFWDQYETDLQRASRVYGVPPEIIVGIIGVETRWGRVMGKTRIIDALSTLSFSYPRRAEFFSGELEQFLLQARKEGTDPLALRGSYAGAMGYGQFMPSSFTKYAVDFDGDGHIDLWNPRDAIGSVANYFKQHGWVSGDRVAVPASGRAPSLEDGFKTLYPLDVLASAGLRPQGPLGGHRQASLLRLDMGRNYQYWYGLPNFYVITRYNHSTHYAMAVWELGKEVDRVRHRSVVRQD

SltB2 [6] = molecular target: T6, SltB2 (P. aeruginosa PAO1, UniProt Q9I4G6 1-398); test: MST
T6 sequence (looked up): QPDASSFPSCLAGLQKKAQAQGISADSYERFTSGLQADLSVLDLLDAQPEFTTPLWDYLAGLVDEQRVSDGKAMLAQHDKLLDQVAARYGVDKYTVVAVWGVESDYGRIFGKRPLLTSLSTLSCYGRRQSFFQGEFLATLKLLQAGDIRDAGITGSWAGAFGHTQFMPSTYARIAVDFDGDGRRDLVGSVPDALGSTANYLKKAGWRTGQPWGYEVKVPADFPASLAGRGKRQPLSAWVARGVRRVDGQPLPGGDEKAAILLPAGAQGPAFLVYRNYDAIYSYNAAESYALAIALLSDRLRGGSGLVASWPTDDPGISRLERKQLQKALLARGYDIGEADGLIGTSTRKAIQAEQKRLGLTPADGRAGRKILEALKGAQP

PBP1a [7] = molecular target: T7, PBP1a (P. aeruginosa PAO1, UniProt Q07806 27-822); test: MST
T7 sequence (Q07806 27-822): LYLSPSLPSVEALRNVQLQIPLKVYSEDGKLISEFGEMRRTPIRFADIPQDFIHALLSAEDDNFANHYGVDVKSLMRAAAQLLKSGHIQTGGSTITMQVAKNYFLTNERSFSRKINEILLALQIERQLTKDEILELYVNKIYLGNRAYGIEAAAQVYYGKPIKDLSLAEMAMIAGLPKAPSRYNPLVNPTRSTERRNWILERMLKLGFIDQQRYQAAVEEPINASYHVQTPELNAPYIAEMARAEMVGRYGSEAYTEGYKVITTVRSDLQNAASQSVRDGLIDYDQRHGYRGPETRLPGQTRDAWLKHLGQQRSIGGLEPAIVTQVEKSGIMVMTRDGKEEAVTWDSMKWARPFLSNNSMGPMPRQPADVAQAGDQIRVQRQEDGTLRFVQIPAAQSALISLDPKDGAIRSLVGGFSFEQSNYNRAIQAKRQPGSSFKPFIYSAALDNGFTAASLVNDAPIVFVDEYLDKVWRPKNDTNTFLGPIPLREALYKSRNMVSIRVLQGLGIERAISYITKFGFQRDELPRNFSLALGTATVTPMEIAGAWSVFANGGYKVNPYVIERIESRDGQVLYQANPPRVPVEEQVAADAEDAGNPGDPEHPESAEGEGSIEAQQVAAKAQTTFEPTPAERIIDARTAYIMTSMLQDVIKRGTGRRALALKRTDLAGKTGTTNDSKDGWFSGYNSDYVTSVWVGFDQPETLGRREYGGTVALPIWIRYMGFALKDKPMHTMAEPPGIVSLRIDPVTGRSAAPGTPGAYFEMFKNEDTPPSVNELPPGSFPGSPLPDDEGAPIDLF

TypA [8] = molecular target: T8, TypA (P. aeruginosa PAO1, UniProt Q9HU67 1-605); test: MST
T8 sequence (looked up): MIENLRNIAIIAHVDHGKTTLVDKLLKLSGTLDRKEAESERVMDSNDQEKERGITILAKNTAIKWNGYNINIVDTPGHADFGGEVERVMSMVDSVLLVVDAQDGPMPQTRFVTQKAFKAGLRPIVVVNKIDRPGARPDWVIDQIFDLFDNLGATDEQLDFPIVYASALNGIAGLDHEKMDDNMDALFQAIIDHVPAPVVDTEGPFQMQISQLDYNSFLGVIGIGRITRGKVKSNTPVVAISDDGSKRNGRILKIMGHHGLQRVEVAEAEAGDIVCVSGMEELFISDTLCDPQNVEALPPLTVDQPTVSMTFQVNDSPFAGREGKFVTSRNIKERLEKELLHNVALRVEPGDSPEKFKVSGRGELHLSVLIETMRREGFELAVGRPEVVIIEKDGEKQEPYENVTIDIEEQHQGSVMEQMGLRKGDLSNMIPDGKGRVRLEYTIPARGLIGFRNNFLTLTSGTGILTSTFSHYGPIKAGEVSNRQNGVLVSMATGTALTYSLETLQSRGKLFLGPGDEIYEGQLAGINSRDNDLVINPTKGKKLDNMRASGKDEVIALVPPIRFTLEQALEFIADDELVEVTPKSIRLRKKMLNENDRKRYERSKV

MltA = molecular target: T9, MltA (P. aeruginosa PAO1, UniProt Q9I4B6 1-385); test: MST
T9 sequence (looked up): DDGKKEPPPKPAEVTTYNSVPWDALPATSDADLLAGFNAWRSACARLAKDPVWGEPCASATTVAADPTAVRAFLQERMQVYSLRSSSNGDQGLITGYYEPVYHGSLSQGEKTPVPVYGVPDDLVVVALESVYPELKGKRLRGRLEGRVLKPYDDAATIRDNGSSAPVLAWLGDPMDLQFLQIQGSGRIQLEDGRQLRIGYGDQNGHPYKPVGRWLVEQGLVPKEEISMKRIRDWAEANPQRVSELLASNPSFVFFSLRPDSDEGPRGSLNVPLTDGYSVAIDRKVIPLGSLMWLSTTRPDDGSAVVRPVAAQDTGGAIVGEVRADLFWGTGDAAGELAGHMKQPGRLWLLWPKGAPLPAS

PBP4 [9] = molecular target: T1, PBP4; test: SPR
MltD [10] = molecular target: T2, MltD; test: SPR
MltF2 [11] = molecular target: T3, MltF2; test: SPR
MltF [12] = molecular target: T4, MltF; test: SPR
MltB [13] = molecular target: T5, MltB; test: SPR
SltB2 [14] = molecular target: T6, SltB2; test: SPR
PBP1a [15] = molecular target: T7, PBP1a; test: SPR
TypA [16] = molecular target: T8, TypA; test: SPR

B1: RlpA-Δ32, fluorescently labeled (domain or fragment)
chain: PQQPARQAGISGPGDYSRPHRDGAPWWDVDVSRIPDAVPMPHNGSVKANPYTVLGKTYYPMNDARAYRMVGTASWYGTKFHGQATANGETYDLYGMTAAHKTLPLPSYVRVTNLDNGKSVIVRVNDRGPFYSDRVIDLSFAAAKKLGYAETGTARVKVEGIDPVQWWAQRGRPAPMVLAQPKQAVAQAAPAAAQTQAVAMAQPIETYTPPPAQHAAAVLPVQIDSKKNASLPADGLYLQVGAFANPDAAELLKAKLSGVTAAPVFISSVVRNQQILHRVRLGPIGSADEVSRTQDSIRVANLGQPTLVRPD
modifications: amine reactive RED-NHS dye
notes: source: E. coli BL21-star (DE3), purified (Ni-NTA), labelled with RED-NHS dye
- Kd (PBP4 [1]): 550 nM
- Kd (MltD [2]): 240 nM
- Kd (MltF2 [3]): 12 nM
- Kd (MltF [4]): 101 nM
- Kd (MltB [5]): 96 nM
- Kd (SltB2 [6]): 110 nM
- Kd (PBP1a [7]): 92 nM
- Kd (TypA [8]): 1000 nM
- Kd (MltA): 67 nM

B2: RlpA-Δ32 (domain or fragment)
chain: B1 chain
notes: source: E. coli BL21-star (DE3), purified (Ni-NTA)
- Kd (PBP4 [9]): 130 nM
- koff (PBP4 [9]): 0.00086 s⁻¹
- kon (PBP4 [9]): 6700 M⁻¹ s⁻¹
- Kd (MltD [10]): 430 nM
- koff (MltD [10]): 0.00116 s⁻¹
- kon (MltD [10]): 2700 M⁻¹ s⁻¹
- Kd (MltF2 [11]): 6 nM
- koff (MltF2 [11]): 0.00028 s⁻¹
- kon (MltF2 [11]): 44000 M⁻¹ s⁻¹
- kon (MltF [12]): 500 M⁻¹ s⁻¹
- Kd (MltB [13]): 620 nM
- koff (MltB [13]): 0.00079 s⁻¹
- kon (MltB [13]): 1270 M⁻¹ s⁻¹
- Kd (SltB2 [14]): 1040 nM
- koff (SltB2 [14]): 0.0005 s⁻¹
- kon (SltB2 [14]): 480 M⁻¹ s⁻¹
- Kd (PBP1a [15]): 340 nM
- koff (PBP1a [15]): 0.00144 s⁻¹
- kon (PBP1a [15]): 4200 M⁻¹ s⁻¹
- Kd (TypA [16]): 2020 nM
- koff (TypA [16]): 0.00077 s⁻¹
- kon (TypA [16]): 380 M⁻¹ s⁻¹
